In the assay the target is 92BR020 SOSIP gp140 trimer (stabilized pre-fusion HIV-1 envelope glycoprotein, SOSIP v.7) (HIV-1 subtype B strain 92BR020). Put plainly: negative-stain electron microscopy; SOSIP proteins diluted in Tris-buffered saline to ~0.02 mg/mL, adsorbed onto carbon-coated copper grids, stained with 2% uranyl formate; 2D classification compared with published well-folded SOSIP trimers.

In publication PMC11634010 one finds stoichiometry N data, which are given here for one substance.

Usually stoichiometry N stands for the number of molecules, sites or subunits per partner or assembly.

Regarding “92BR020 SOSIP gp140 trimer (stabilized pre-fusion HIV-1 envelope glycoprotein, SOSIP v.7) (natural protein)”, the stoichiometry N stood at 3.
